Changes are numbered by the printed parent chain. Names may count otherwise. Like-named read-outs stand apart in the source and are kept apart here.

Test in all cases: EMSA
Background: A gel shift assay detects complexes by their altered migration in electrophoresis.

Data set [1] concerns the target T1, 6H-QseC2 (Mesorhizobium japonicum R7A, UniProt A0ABX6MZB7 1-81).
Data set [2] has as its target T1, 6H-QseC2. The source holds these as a separate data set.
In data set [3] the target is T1, 6H-QseC2. This is another data set of the same source.
For data set [4], the target named is T1, 6H-QseC2. This is another data set of the same source.

B1: O2L EMSA (O2R scrambled) (dsDNA)
DNA 1: TACGTGGTTGAATGCTCGACACTACATGGCGCGGTTTGCCTTGTGGATTGCAAATATATCCTAAAATGGGATAGAACTACTGGTAACGTAGTTGATGAGCCGGTTCCCTTCTGGCCGGTTCATCTGATGCAGCGTGCGCTACTAGTTCCCGTA
DNA 2: TACGGGAACTAGTAGCGCACGCTGCATCAGATGAACCGGCCAGAAGGGAACCGGCTCATCAACTACGTTACCAGTAGTTCTATCCCATTTTAGGATATATTTGCAATCCACAAGGCAAACCGCGCCATGTAGTGTCGAGCATTCAACCACGTA
For B1, the binding result in data set [1] is recorded as “binds”.

B2: O2L-O2R EMSA (dsDNA)
DNA 1: TACGTGGTTGAATGCTCGACACTACATGGCGCGGTTTGCCTTGTGGATTGCAAATATATCCTAAAATGGGATAATCCGAAACTGGGATTAGTTGATGAGCCGGTTCCCTTCTGGCCGGTTCATCTGATGCAGCGTGCGCTACTAGTTCCCGTA
DNA 2: TACGGGAACTAGTAGCGCACGCTGCATCAGATGAACCGGCCAGAAGGGAACCGGCTCATCAACTAATCCCAGTTTCGGATTATCCCATTTTAGGATATATTTGCAATCCACAAGGCAAACCGCGCCATGTAGTGTCGAGCATTCAACCACGTA
B2: the binding result in data set [2] is “binds”.

B3: O2R EMSA (O2L scrambled) (dsDNA)
DNA 1: B2 DNA 1 with A58G, T59A, C60G, C61T, A63C, A66T, T67C, G68T, G70A, T72A
DNA 2: B2 DNA 2 with A82T, C84T, C86A, A87G, T88A, T91G, G93A, G94C, A95T, T96C
Consider B3, for which the binding result in data set [3] is “binds”.

B4: RDM2 EMSA (both scrambled) (dsDNA)
DNA 1: TACGTGGTTGAATGCTCGACACTACATGGCGCGGTTTGCCTTGTGGATTGCAAGTCCAGATAGAAACGGACATATTGATTATTAATTAGCGCTGATGAGCCGGTTCCCTTCTGGCCGGTTCATCTGATGCAGCGTGCGCTACTAGTTCCCGTA
DNA 2: TACGGGAACTAGTAGCGCACGCTGCATCAGATGAACCGGCCAGAAGGGAACCGGCTCATCAGCGCTAATTAATAATCAATATGTCCGTTTCTATCTGGACTTGCAATCCACAAGGCAAACCGCGCCATGTAGTGTCGAGCATTCAACCACGTA
Turning to B4, the binding result in data set [4] was “no binding”.
